Measured values taken from the DeepSol protein solubility set.

Assay: soluble on expression in E. coli; label from the status in PepcDB or PDB records

| Sequence | soluble on expression in E. coli |
| --- | --- |
| MMSSQAWTDVENDLIVADYFAMLAEDVAGHPYNKAEHRRQLLPRLNDRSDGSVEFKHQNISAVLKGLGEVWITGYKPAFNFQTSLVDAVARWLVINPGWTHRTLSSRPVDGMAEAAQLWVGPAPTLTNQPSPDELEQMLHIAKKFDVAARDGRNRALGKAGEERVLKHERNTLTAAGREDLAQQIRWVSEEEGDGAGYDIASFDADGRQRLIEVKTTNGWERTPFHISRNELAVADERREEWCLFRLWNFARTPKAFELRPPLDAYVSLTATSFQASIHLEHHHHHH | not soluble |
| MAAAAARSTSPFEIRHAVTIAAPPEAVFDYVTNPKSWPEWLPSSHALECDDRPMGFGDTFHEHWSTRSGPVDLDWLVIACDRPLLWIGLTQTSFMGPVVVHYTFEAVDDGTRFTRILRNPARPKPPTAEMIERMSTEAELGLGNIKRIVERR | not soluble |
| VRLSNPDILLNIHVSHEEVTLSLDSSGDSLHKRGYRVAETTAPLNEVLAAGILLKAGWDGSTDLIDPMCGSGTFLIEAALIACNIAPGIYRRGFAFQRWADFDLDLYDELFHDDSAERVFDHIIYGSDILPQAVAAARSNVERAGLGRYISLSVLPMQQRPKPESKAMLVMNPPYGERIKVEDMQQLYTMIGERLKHNYAGCSAWILAFKPEHFNHIGLRQSHREKLMNGALECELRGYELFEGRR | not soluble |
| MSLNSMKDAFNREIDYVRLSLTDRCDLRCTYCMPATGLCFLKKEQLLTDDEIIFLLRILAKEDIKKVKLTGGEPLVRPNLLSLIKRIKQISGIEKVTLTTNGMKLAREAQGLKEAGLDGINISLDTLDPEEFREITRVGQLRNVLAGLEQAIDVGLPNIKINTVARKELSEATIVELAEIAKKETVHLRFIEMMPIGLGKEHPGKQQEEVEAILTKYYGTLQPYQKPLGNGPASYYALKDFKGKIGFISALGHCFCETCNRIRITADGHLKTCLHSADGYSLKEALAMEQTAELLGIIKSGIACKPEKHLFLEQQGEQRFMSQIGGEGHHHHHH | not soluble |
| MGSDKIHHHHHHMKDVSIVLSGEAGQGIQTVENVLTRVLKDSGFHVFATKEYMSRVRGGNNTTEIRVSSRRVRSFVDRIDVLIPLGKGATERLKNRITEKTLVIGEEEFIKESPGEKIVIPFLNIAKQIGKSIYANSVAIGFLSGLLGADESALKDQITRQFSSKGEDIVNDNIRAALEGYKKGQELSQKIEFDVEKDPSIKNEVLLNGAEAVGLGAIAGGCNFVSSYPMSPSTSVLVFLAQHKNDFGIVVEQAEDEIAAMNMIIGAWYAGARGLVTTSGGGFALMEEALSLAGMIESPAVIHLAQRPGPATGLPTRTEQGDLNLALYAGHGDFPRVIYAPGNVEEAFYLTQKAFNVADKYQVPVFVLTDQYLVDSYYNLPGFDLNELKVEKHFIKTTRDYIRYAITEDGISPRGIPGYGEGLVRVDSDEHDEFGHITEDFNTRVRMVNKRLRKGETLKKEIVKPKLIGDENYRVLLVAWGSTLEPIKEAIEGLDGVALLHFSQVWPIDESVATYFEKAEKVVAVEGNATGQFANLIRQVTGFHIKDRILKYNGLQFSVEELKEKIAEVL | not soluble |
| MLTTLAISNYRTLREIVLPLGRLNVVTGANGSGKSNLYKALRLLAQTAQGGVVNALALEGGLDSCFWAGPENLTKGMLAGDTPIEATVRQAPKRLKLGFAGEDFSYLIELGLPKPDSTTLFGLDPQIKREAIWNGAKYRPASVLVERRGPMVKSRSQDGQGWITLSAHLQSSDSIFTELADPERSPEVLKLRDSIRAWRFYDHFRTDTDAPARRPQLGTATPVLHHDGRDLPSAIQTIFEIGDKSAFDHAVSDAFPGAKVRITPQAGGILQLEFQQQGLLRPLYASELSDGTLRYLLLIAALLTPRPPELMVLNEPETSLHPDLLPALARLIAKASEVCQLWVVSHANRLINALNQFEECNTLALDKTLGQTQILGQDLLNTPSWLWQNRLEHHHHHH | soluble |
| MDNDKNSIIDIVGDGINYEKLKKVEKSLCQIDIITEFMNRSRHLQGKKVNGCIMRIDETKQLLFHVIIDGPVGSIYEGGTFFADINIQPYQNHSLIPRVCFHTFIFHPNLGKYGNWDMRGIQWERRSNLEVLYNFIVEGMRNVKYDIERRNLAQLEDMSQPNISRLAKEDWPKFERTAREFVMKMAGGTINGRKTIFAETKKRRRQDFLDEDIDVIGIS | not soluble |
| MTIAQQERPVAASPYRFEAEMTSGLERVAAHHHDLTLTSVFQPIFSLSHMRAVGYEALLRAHDALDRPVSPLDVFGEAARHGEAAQVDRLAQALHLENFARFGAEREWLFLNVHPGVLTDPFQAAALFANLKRLEIPPRRIVLEVLEQRADDIERLADAVREFREQGFLIALDDFGAGHSNIERIWQLNPDIVKLDRIMLSHAQHRAGLTAILHGLVTLLHEAGKLVLIEGIETEHEAQIALACDADFVQGHFFGRP | not soluble |
| MKAMHMEQKIYKAKFSEYQLADNFINFNYLLKFKLGPEDVRAKGAFSTIFESTMLDWDLQLHKQFAGHILHSRESNWVISLNGSGVRDSYPPLHKLYFKVKAMGSDGSIKKSLKYFIDGLPIAPAERRGRMDHRSYTTLQNTQFERDLSTLIAEAKKKAQTIQLETRLEFKKNDLVDMKYLLGNGAPNMPDSLDYYFDAITNKSRHDLKLKTSDGMHFVMTNKEIVCLASQFFRQHLKDTTTEYTVGRADSVQSIDICLTYMITGIYKKPALLSPKLAFEIFALAMQWKVFEPKVLKNSIEKHCCEELQKNYEDIMYVCNMLIIADDAQFANVQNCCIATLVFYHAHDFIRIFVIGNHPLKERFSRRQEFLRPSLTMQVKRAFAASNESKCFIKFLPAIGED | not soluble |
| MGSDKIHHHHHHMINRKFINTVLAKRSTRSGLCQSATRTSRWLAVAIAILLANNSHADTSQTNVAAPAKTSACYLDGLDEQLQCGKITVLENPQLPDGKQIDIHFAILPAIKNTHPNEALLAIAGGPGQSAIENAAFFNRMLTKVRQQRDILLIDQRGTGKSNILSCDDDTTELLSMNDDDLDIIAMTEKCLGQIDADVSQYGSNTALTDFEAVREYLGYQKLHLYGISYGTRMAQLYMRHYPEALLTVTLDGVVPMQQSVVAIGDSIERGLNVLWRDCKSTPACQQQFPDLADEYNKVDQLLATAPISQQVRDPQTDELSEFLLTRSKFSGAIRMAMYMANIRALIPHAIHQAAQGNYQPILGIYTLTADSTGIAMGMHASVVCGEDIHRITDQMRKDAKESYISGNMLEGLEKTCQAWPIPQVDDNFSEPILSDIPTLLLSGELDPATPPNWGALAQEKLTKSKHFIAPYATHGVAGQSCGNDLVAQLVDQGSVKDINGECLQKDVRRSFYLNANTVEALPVIDTPTDIETTAPANTAADKE | not soluble |
| MAHHHHHHMTEYEEKERKTSLAALRRFVKHCGPTRFTFITRIPLSRNTNQVNGTLLLENGDLTVCAQDMKANIADIREDIASFSVPQHQDFIRAFEEAKNMLKNELAALQEHKSILMVQYEMARP | not soluble |
| MSLEKLTVSDSKKLFHEQFPYVIPGLYKRIVDEMLVELNLLNHQNEFIQDDLFCVGLTETFKELTKGYKPEEHLRVLFESLCNSSNFEPKKIKEASKKTLEVYKDKSLKEISILLKQKSDSNLYSSRIMNLGIYLIIANATDFKDIKDPEKNKIISDIINKLNLSFNKAEKDIGIYKSSILKMEQAKELLQEAKIKDKKEKEGHHHHHH | soluble |
| GSDITSLYKKAGSEMNGPRCPVQTVGQWLESIGLPQYENHLMANGFDNVQFMGSNVMEDQDLLEIGILNSGHRQRILQAIQLLPKMRPIGHDGYHPTSVAEWL | soluble |
| MRGSHHHHHHTDPALRASIKNLPADYLLAAQQGDIDKVKTCLALGVDINTCDRQGKTAITLASLYQQYACVQALIDAGADINKQDHTCLNPFLISCLNDDLTLLRIILPAKPDLNCVTRFGGVGLTPACEKGHLSIVKELLAHTEINVNQTNHVGWTPLLEAIVLNDGGIKQQAIVQLLLEHGASPHLTDKYGKTPLELARERGFEEIAQLLIAAGAGLCGR | soluble |
| MSSHHHHHHMQFDVTIEIPKGQRNKYEVDHETGRVRLDRYLYTPMAYPTDYGFIEDTLGDDGDPLDALVLLPQPVFPGVLVAARPVGMFRMVDEHGGDDKVLCVPAGDPRWDHVQDIGDVPAFELDAIKHFFVHYKDLEPGKFVKAADWVDRAEAEAEVQRSVERFKAGTH | soluble |
| MGSDKIHHHHHHELGMQDNLNDSKILLSSDEYISIAYDNPGIITSEEAKQLVLDFNPTGLQTRNNNVKIMAISTYNVSSSSGLKTRVGSTNLTTIPVYKIEFLSDEGKGVAYVPADERFAKIMAYLPKTDLKDSVKYVDSKSMLYLSELSLLEDAKYYEKVKSELRAKTLAKIAKTLNVKAVRYDEIQDIIIVKDEILSRSEPTFPIGNPIGFAGLYCSSTEWNQDAPYNDLLQKENCDLYDTGSPTYEAVPAGCAVISIAQIMASLEPDLTVDGLKIDWNILKAQKQIIAPSSWQTPSSETTREMVAKLIKYIYIATNTQPVRNSSGYVTGSGTYSSDTSSFFYRFFSTSGLKNGWDGNAAFQSLQLAKLVWIAATSNRGGSHAFILDGFAYWRPQTRYLVKNFDFYFHANMGWGGYYDGFYLVNKDLSITFDTSNGSYDRNFSMIYNIINK | not soluble |
| NSLDNQVRLLLEDSVPKYNASYFLESKTSEINRRVEALQAVDNKVQLTEQAMQVNEQLASISTVLKSNKMSSEFYQLLESEAGLASLLEKYVDMISTRIDQTRRVDQLMEQINWLHQDIRSELKPVRQEVHWQIERVNDSKEIQNLLVQLSTLQRVIDIESAVYDMAIDVAGASMPEQVDNGMKVIHFRLMDLQESSTTLMNQPTSIAYKQLLQELVVVLSPEGAFDKQLMSLVTLNGDIQKIQEQIALSMEAIHQQIGELVSTADQTFKQVKSETAERVSYGN | not soluble |
| MGSDKIHHHHHHMKEKTVAIFNGYYIPHLGGVERYTYNIAKKLTEKGYRVIIITTQHDENLTNEEIQEGIKIYRLPIKNLWKNRYPFLKKNRIYHSLIEKIEAESIDYYVANTRFHLPAMLGVKMAKAKGKEAIVIEHGSSYLTLNNPVLDFMLRKIEQLLIGRVKKDTSLFYGVSNEASEWLKTFDIKAKGVLPNAVAVDEYFNQKIEKDEKKLTISYAGRLIPQMKGVEILLSTFSKLSKERKNLELIIAGDGPLLNEVKRKYSQKNIKFLGYVPYEKVLEIDAKSDVFVLMSRSEGFATAMLEAAMLENVIITTPTVGGARDIMPDETYGYIIENNETKLFETLTKVLDNKEHMRLMQKKISKNVLENFTWEQSAKQFIKVFNELDEK | not soluble |
| MLSSINMVKIGLEVHVHLTSLKTKLFCSCPSDYTGKDPNTNVCPICLGLPGAIPVLNENAVKAAIMVALAINAEIANSLIMVRKHYFYPDMAKNYQISQYDGPGSIAISKGGYLKLREGKTVRIRRINIEEDPAKIIYPTGSMLTSKYTLLDYNRSGMGLLEIVTEPDMTEPKEAREFLEKLRSILEHLGVCNCDLEGAMRADANVSVEGGERVEIKNIGSPREVEEALKYEIARQKAAIAQGLPVKRETRHWDSERKVTVPTRTKETEEDYRYFPDPDLPPYPITQDLIEEIRKTLPELPDLRIKRLVTQYGISDYDATVLVMDKALADLFEETAKHYSNYKKLVNLLINDYLRWLNDKNLRPSQSKAGSQHLVELLKLLDDGVITIKIAKEILPEIVLEGKMPSSIIKERGLVAIKDEDYLINVIKEVINEEPDAAEKAKNDPKVINYLVGKVMKKTGKRADPQLTNELIKKILGIK | soluble |
| MSLKVHLNYETGPEHWADLQSRLAPGIRLSSGECRPANGFDILVSGEPTLEELEGNGRLRAVIVPWVGVPLATLDRMKEFPSIALHNLPYNIGPTAEMAVALLLAAAKRIVPYDQRLRRGYWSGEHTGVPGSVMLDGGLAVILGYGRIGRRVAAACRGLGMRIAGVRRNPGTSDEEYALADLSGLLPQAAALIVCLPHTHQTDRLIGSRELERLPSNAVLVNVARGGIVNEEALYRTLQARRIYAAGIDVWYRYPSATERKQGLPHPPSSFPFHTLDNVVMSPHRAGWSEEKEPARIAELANMLNAAARGEGHHHHHH | not soluble |
